The chains are these.
T1: FLAG-ALIX (full length) (UniProt Q8WUM4 1-868)
T1 construct: also called full-length ALIX; not shown: FLAG tag
T1 sequence (looked up): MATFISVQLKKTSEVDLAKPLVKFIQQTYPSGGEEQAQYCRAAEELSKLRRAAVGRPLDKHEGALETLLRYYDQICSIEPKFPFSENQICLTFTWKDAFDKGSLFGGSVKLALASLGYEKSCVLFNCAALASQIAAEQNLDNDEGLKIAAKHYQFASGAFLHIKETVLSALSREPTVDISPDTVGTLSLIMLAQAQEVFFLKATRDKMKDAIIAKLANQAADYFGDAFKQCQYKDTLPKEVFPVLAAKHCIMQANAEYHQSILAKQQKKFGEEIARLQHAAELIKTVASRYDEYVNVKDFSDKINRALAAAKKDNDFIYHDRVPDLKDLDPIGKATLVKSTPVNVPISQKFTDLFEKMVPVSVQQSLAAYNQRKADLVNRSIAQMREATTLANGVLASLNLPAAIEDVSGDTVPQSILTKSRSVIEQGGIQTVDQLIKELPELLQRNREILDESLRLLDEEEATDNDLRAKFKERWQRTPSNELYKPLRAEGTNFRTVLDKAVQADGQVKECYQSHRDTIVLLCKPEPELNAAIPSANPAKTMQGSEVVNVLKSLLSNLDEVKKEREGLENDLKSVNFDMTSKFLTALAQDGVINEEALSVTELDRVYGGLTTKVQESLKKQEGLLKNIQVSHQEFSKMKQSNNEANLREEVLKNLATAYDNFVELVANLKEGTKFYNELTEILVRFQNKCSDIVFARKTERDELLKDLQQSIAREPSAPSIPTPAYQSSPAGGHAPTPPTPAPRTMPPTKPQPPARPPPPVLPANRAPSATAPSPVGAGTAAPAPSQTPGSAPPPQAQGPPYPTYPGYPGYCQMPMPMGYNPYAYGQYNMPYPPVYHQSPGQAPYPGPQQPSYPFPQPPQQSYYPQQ

B1: endogenous PACT (other, UniProt O75569 1-313, looked up)
chain: MSQSRHRAEAPPLEREDSGTFSLGKMITAKPGKTPIQVLHEYGMKTKNIPVYECERSDVQIHVPTFTFRVTVGDITCTGEGTSKKLAKHRAAEAAINILKANASICFAVPDPLMPDPSKQPKNQLNPIGSLQELAIHHGWRLPEYTLSQEGGPAHKREYTTICRLESFMETGKGASKKQAKRNAAEKFLAKFSNISPENHISLTNVVGHSLGCTWHSLRNSPGEKINLLKRSLLSIPNTDYIQLLSEIAKEQGFNITYLDIDELSANGQYQCLAELSTSPITVCHGSGISCGNAQSDAAHNALQYLKIIAERK
notes: also called PRKRA
B2: GFP-PACT (other, UniProt O75569 1-313, looked up)
chain: B1 chain
notes: not shown: GFP
B3: Myc-PKR (enzyme, UniProt P19525 1-551, looked up)
chain: MAGDLSAGFFMEELNTYRQKQGVVLKYQELPNSGPPHDRRFTFQVIIDGREFPEGEGRSKKEAKNAAAKLAVEILNKEKKAVSPLLLTTTNSSEGLSMGNYIGLINRIAQKKRLTVNYEQCASGVHGPEGFHYKCKMGQKEYSIGTGSTKQEAKQLAAKLAYLQILSEETSVKSDYLSSGSFATTCESQSNSLVTSTLASESSSEGDFSADTSEINSNSDSLNSSSLLMNGLRNNQRKAKRSLAPRFDLPDMKETKYTVDKRFGMDFKEIELIGSGGFGQVFKAKHRIDGKTYVIKRVKYNNEKAEREVKALAKLDHVNIVHYNGCWDGFDYDPETSDDSLESSDYDPENSKNSSRSKTKCLFIQMEFCDKGTLEQWIEKRRGEKLDKVLALELFEQITKGVDYIHSKKLIHRDLKPSNIFLVDTKQVKIGDFGLVTSLKNDGKRTRSKGTLRYMSPEQISSQDYGKEVDLYALGLILAELLHVCDTAFETSKFFTDLRDGIISDIFDKKEKTLLQKLLSKKPEDRPNTSEILRTLTVWKKSPEKNERHTC
notes: not shown: Myc tag
B4: GFP-PKR (enzyme, UniProt P19525 1-551, looked up)
chain: B3 chain
notes: not shown: GFP
B5: endogenous PKR (enzyme, UniProt P19525 2-551, looked up)
chain: AGDLSAGFFMEELNTYRQKQGVVLKYQELPNSGPPHDRRFTFQVIIDGREFPEGEGRSKKEAKNAAAKLAVEILNKEKKAVSPLLLTTTNSSEGLSMGNYIGLINRIAQKKRLTVNYEQCASGVHGPEGFHYKCKMGQKEYSIGTGSTKQEAKQLAAKLAYLQILSEETSVKSDYLSSGSFATTCESQSNSLVTSTLASESSSEGDFSADTSEINSNSDSLNSSSLLMNGLRNNQRKAKRSLAPRFDLPDMKETKYTVDKRFGMDFKEIELIGSGGFGQVFKAKHRIDGKTYVIKRVKYNNEKAEREVKALAKLDHVNIVHYNGCWDGFDYDPETSDDSLESSDYDPENSKNSSRSKTKCLFIQMEFCDKGTLEQWIEKRRGEKLDKVLALELFEQITKGVDYIHSKKLIHRDLKPSNIFLVDTKQVKIGDFGLVTSLKNDGKRTRSKGTLRYMSPEQISSQDYGKEVDLYALGLILAELLHVCDTAFETSKFFTDLRDGIISDIFDKKEKTLLQKLLSKKPEDRPNTSEILRTLTVWKKSPEKNERHTC
notes: also called EIF2AK2; Protein Kinase R
B6: ALIX (cellular) (other, UniProt Q8WUM4 2-868, looked up)
chain: ATFISVQLKKTSEVDLAKPLVKFIQQTYPSGGEEQAQYCRAAEELSKLRRAAVGRPLDKHEGALETLLRYYDQICSIEPKFPFSENQICLTFTWKDAFDKGSLFGGSVKLALASLGYEKSCVLFNCAALASQIAAEQNLDNDEGLKIAAKHYQFASGAFLHIKETVLSALSREPTVDISPDTVGTLSLIMLAQAQEVFFLKATRDKMKDAIIAKLANQAADYFGDAFKQCQYKDTLPKEVFPVLAAKHCIMQANAEYHQSILAKQQKKFGEEIARLQHAAELIKTVASRYDEYVNVKDFSDKINRALAAAKKDNDFIYHDRVPDLKDLDPIGKATLVKSTPVNVPISQKFTDLFEKMVPVSVQQSLAAYNQRKADLVNRSIAQMREATTLANGVLASLNLPAAIEDVSGDTVPQSILTKSRSVIEQGGIQTVDQLIKELPELLQRNREILDESLRLLDEEEATDNDLRAKFKERWQRTPSNELYKPLRAEGTNFRTVLDKAVQADGQVKECYQSHRDTIVLLCKPEPELNAAIPSANPAKTMQGSEVVNVLKSLLSNLDEVKKEREGLENDLKSVNFDMTSKFLTALAQDGVINEEALSVTELDRVYGGLTTKVQESLKKQEGLLKNIQVSHQEFSKMKQSNNEANLREEVLKNLATAYDNFVELVANLKEGTKFYNELTEILVRFQNKCSDIVFARKTERDELLKDLQQSIAREPSAPSIPTPAYQSSPAGGHAPTPPTPAPRTMPPTKPQPPARPPPPVLPANRAPSATAPSPVGAGTAAPAPSQTPGSAPPPQAQGPPYPTYPGYPGYCQMPMPMGYNPYAYGQYNMPYPPVYHQSPGQAPYPGPQQPSYPFPQPPQQSYYPQQ
notes: also called PDCD6IP

The target in experiment [1] is T1, FLAG-ALIX (full length). Kind of experiment: co-IP with anti-FLAG from HEK293T cells, 1 mM LLOMe 30 min.
In the next experiment the target is T2, FLAG-eIF2α (UniProt P05198 1-315).
T2 construct: not shown: FLAG tag
T2 sequence (P05198 whole entry): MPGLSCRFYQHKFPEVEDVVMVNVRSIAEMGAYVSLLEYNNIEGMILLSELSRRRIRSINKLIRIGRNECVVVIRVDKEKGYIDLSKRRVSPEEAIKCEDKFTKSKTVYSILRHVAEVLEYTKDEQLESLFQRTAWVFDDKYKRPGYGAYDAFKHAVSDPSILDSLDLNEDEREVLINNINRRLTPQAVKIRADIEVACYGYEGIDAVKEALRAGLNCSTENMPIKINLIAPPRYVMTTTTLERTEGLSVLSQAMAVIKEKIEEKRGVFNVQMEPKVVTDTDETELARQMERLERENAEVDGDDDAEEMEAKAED
Described as above.

A further experiment concerns the target T3, FLAG-PKR (UniProt P19525 1-551).
T3 construct: not shown: FLAG tag
In words: co-IP of FLAG-PKR and PACT in HEK293T cells.

The experiment “endogenous PKR” has as its target B5. In words: co-IP with anti-GFP from HEK293T cells transfected with FLAG or FLAG-ALIX, 1 mM LLOMe 30 min.
The experiment “ALIX (cellular)” has as its target B6. In words: confocal microscopy of GFP-PKR/PACT and ALIX in U2OS cells, 2 mM LLOMe.
Experiment [2] concerns the target T1, FLAG-ALIX (full length). In words: co-IP with anti-FLAG from HEK293T cells expressing FLAG tagged ALIX constructs and Myc-PKR.
The target of the next experiment is T4, APEX2-eIF2α (UniProt P05198 1-315).
T4 construct: also called APEX2-eIF2α fusion
T4 sequence (P05198 whole entry, the tested form may be a part): as the sequence (P05198 whole entry) above
In words: APEX2-eIF2α proximity biotinylation, LC/MS/MS, LLOMe against control.

As for B1, the binding result with FLAG-ALIX (full length) [1], with FLAG-eIF2α and in the experiment with FLAG-PKR was “binds” in each case.

For the molecule B2, the binding result with endogenous PKR and with ALIX (cellular) was “binds” each time.

Turning to B3, the binding result with FLAG-ALIX (full length) [2] is given as “binds”.

As for B4, the binding result with ALIX (cellular) is given as “binds”.

On to B5, for which the binding result in the experiment with FLAG-ALIX (full length) [1] is recorded as “binds”.

For B6, the “fold increase in association with eIF2α (LLOMe/CTR)” value with APEX2-eIF2α is > 10 fold.
